Test system: isolated microspores of Triticale (variety Sunray)
Assay: CPP delivery of GUS enzyme into isolated microspores, GUS staining
Type: cell-based
Details: GUS enzyme cargo:CPP 1:4, 1 hour at 37° C., three repeats
Protocol: Triticale line Sunray grown in a growth cabinet with a photoperiod of 19 h day (intensity 300 μE m-2 s-1), and temperature 18-15° C. (day-night) with a relative humidity at about 70% was used as the donor plant material. The plants were fertilized every 2 weeks (20-20-20, 200 ppm) and treated with 2.5 ml I-1 Tilt™ (propiconazole, Syngenta) during the tillering stage and Intercept™ (0.004 g per litre of soil, Imidacloprid, Bayer) once sufficient root development was established. The first 10 tillers from each pot were harvested when the spike was at 3-4 cm, depending on the crop, from emergence from the boot. These tillers (to be used for microspore isolation) were subjected to pre-treatment in a refrigerator (4° C.) for 21 days with their bases in distilled water and their heads wrapped in aluminum foil. After 21±3 days of pre-treatment, the spikes were excised from their tillers and after an evaluation of their general appearance, only the most homogenous spikes were used. After confirming microspores at mid to bi-nucleate stage from a median floret, using acetocarmine staining, the tillers were processed for extraction.
Awns were removed with scissors in a laminar flow hood. […] After counting the cells using a haemocytometer, aliquots of 100,000 cells in 200 μl volume were prepared in 2 ml microcentrifuge tubes to be ready for transduction. […]

B1: Gus protein: β-Glucuronidase (GUS; Sigma Aldrich, Escherichia coli Type VII-A), cargo used alone (protein, UniProt P05804 1-603, looked up)
Beta-glucuronidase: MLRPVETPTREIKKLDGLWAFSLDRENCGIDQRWWESALQESRAIAVPGSFNDQFADADIRNYAGNVWYQREVFIPKGWAGQRIVLRFDAVTHYGKVWVNNQEVMEHQGGYTPFEADVTPYVIAGKSVRITVCVNNELNWQTIPPGMVITDENGKKKQSYFHDFFNYAGIHRSVMLYTTPNTWVDDITVVTHVAQDCNHASVDWQVVANGDVSVELRDADQQVVATGQGTSGTLQVVNPHLWQPGEGYLYELCVTAKSQTECDIYPLRVGIRSVAVKGEQFLINHKPFYFTGFGRHEDADLRGKGFDNVLMVHDHALMDWIGANSYRTSHYPYAEEMLDWADEHGIVVIDETAAVGFNLSLGIGFEAGNKPKELYSEEAVNGETQQAHLQAIKELIARDKNHPSVVMWSIANEPDTRPQGAREYFAPLAEATRKLDPTRPITCVNVMFCDAHTDTISDLFDVLCLNRYYGWYVQSGDLETAEKVLEKELLAWQEKLHQPIIITEYGVDTLAGLHSMYTDMWSEEYQCAWLDMYHRVFDRVSAVVGEQVWNFADFATSQGILRVGGNKKGIFTRDRKPKSAAFLLQKRWTGMNFGEKPQQGGKQ
With B1 the “Average Transduction Efficiency” value was “not capable of transducing itself”.
